# Laboratory results from the supplement of paper PMC9732359.
# ± gives the uncertainty stated by the source.
# Experiment: protein stability index of a GFP-peptide fusion (yeast GPS) (PSI 1-4); higher = more stable; sorted into four equal gates, so the index is relative within each strain
# Summary of the method: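 Each library plasmid carries Cherry plus GFP with a tiled 17-residue yeast protein peptide fused downstream, and the pooled library was carried in yeast. Mid-log cultures in leucine-free medium were sorted into four equal gates by GFP/Cherry ratio. Reads from Illumina sequencing of PCR-amplified plasmids from each gate were assigned to strains by barcodes. Per peptide, the protein stability index was computed as the summed products of gate read frequency and gate number.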
Sequence,protein stability index (doa10∆),protein stability index (pdr5∆),protein stability index (san1∆),protein stability index (ubr1∆)
NNNGNPGTTSTGNNNNI [GAL11],3.18 ± 0.12,3.34 ± 0.075,3.18 ± 0.061,3.23 ± 0.07
NNNNTIDESMPDTAIDS [GRR1],2.78 ± 0.061,3.02 ± 0.052,2.81 ± 0.061,3 ± 0.044
NNNQKIDDNYIVVVIEI [SRB8],3.16 ± 0.078,3.01 ± 0.065,3.29 ± 0.083,3.11 ± 0.1
NNPANNTNNNNSTGHSS [SWI1],2.58 ± 0.036,2.15 ± 0.035,2.59 ± 0.034,2.12 ± 0.036
NNSTGIANDNVITPHFI [SWI1],2.69 ± 0.041,2.95 ± 0.042,2.86 ± 0.031,2.9 ± 0.033
NNTLSRYADAGNIDTKN [RRP43],3.35 ± 0.064,3.21 ± 0.058,3.28 ± 0.041,3.5 ± 0.054
NNTNTGASGVDDFQNFF [SWI1],2.92 ± 0.068,3.16 ± 0.065,2.87 ± 0.069,3.31 ± 0.045
NNVTSNPSEFTPNMVNS [SSN2],2.93 ± 0.063,3.03 ± 0.053,2.66 ± 0.09,3.1 ± 0.05
NNVYFAAGALFVSSGFD [RPN14],1.78 ± 0.13,2.81 ± 0.15,1.92 ± 0.29,2.21 ± 0.17
NPASATDNMSGRGLWNP [YJL039C/NUP192],2.71 ± 0.079,3.1 ± 0.082,2.8 ± 0.076,3.16 ± 0.075
NPDDDYGFKQEIFDVTS [FAS1],3.38 ± 0.25,3.45 ± 0.11,3.17 ± 0.1,3.31 ± 0.055
NPHDGVNSIALFVGTDR [RPN14],2.08 ± 0.14,2.42 ± 0.096,2.33 ± 0.076,2.99 ± 0.11
NPIDPFNIIREFRSAAG [YDL116W/NUP84],3.14 ± 0.074,3.14 ± 0.07,3.16 ± 0.043,3.09 ± 0.063
NPMVPSSVNEDTFLPPP [PRP8],3.05 ± 0.058,3.32 ± 0.06,3.01 ± 0.04,3.1 ± 0.043
NPSQGVSNSGAQDEEIH [UBP6],2.04 ± 0.074,2.22 ± 0.068,2.04 ± 0.12,2.11 ± 0.059
NPTEFDWPTYVDQNPLT [SRB8],2.85 ± 0.068,2.44 ± 0.043,2.69 ± 0.054,2.19 ± 0.046
NPVALEQKLVDLLKFEN [BRR2],2.94 ± 0.17,3.23 ± 0.11,2.3 ± 0.12,2.47 ± 0.12
NQKLALVIKSGKYTLGY [RPL30],2.46 ± 0.11,2.87 ± 0.09,2.29 ± 0.13,2.93 ± 0.047
NQLSQTNKLLFKRVSQT [NUT1],1.92 ± 0.042,1.36 ± 0.037,1.37 ± 0.083,1.38 ± 0.035
NQLVAKLLLLRINSTDE [SRB8],1.67 ± 0.11,1.22 ± 0.17,,1.14 ± 0.055
